The values below are quoted from earlier work in patent publication US20060003347A1 (priority 2002, published 2006).

For data set [1] the following is noted: pH 8.5.
For data set [2] the following is noted: literature.

Take `CCOP(=O)(OCC)Oc1ccc([N+](=O)[O-])cc1` [paraoxon]: the “Rate of base-catalysed hydrolysis” value in data set [1] is 2.4e-07 s⁻¹.

For orientation: kcat means the maximal rate divided by the concentration of active sites. As for acetylcholinesterase, in data set [2], the kcat is 14000 s⁻¹.

Take catalase: the kcat in data set [2] is 4e+07 s⁻¹.
